In patent US20160264684A1, “GLYCAN-INTERACTING COMPOUNDS AND METHODS OF USE” (SIAMAB THERAPEUTICS, INC., priority 2013, published 2016):

Key:
[1] = test system: E3-STn cells; experiment: E3-STn transfected murine breast tumor allograft model, tumor volume; assay type: in vivo, mouse; conditions: 7G9-1A8 25 mg/kg ip twice weekly 3 weeks, Paclitaxel daily 5 days
Method: 3 test articles were evaluated during the study.
Standard deviation values are listed in parenthesis.

[2] = E3-STn allograft model, complete blood count (CBC); assay type: in vivo, mouse; design: Red blood cells / White blood cells: unit not given here; conditions: CBC at end of study, antibody-treated mice
Method: At the end of the study, a complete blood count (CBC) was obtained for 5 mice treated with antibody as well as 3 mice treated with vehicle control. Blood was collected from all mice via terminal cardiac puncture and processed for plasma. Blood was placed in EDTA microtainer tubes (BD & Co., Franklin Lakes, N.J.) then centrifuged. Plasma layers were then removed and snap frozen in cryo vials (Thermo-Fisher Scientific, Rochester, N.Y.) and stored at −80° C. until analysis. Analysis was carried out to look for levels of a variety of factors.

[3] = Pathological evaluation of organs (H&E); assay type: in vivo, mouse
Method: At the end of the study described in Example 22, three mice from the vehicle control group and five mice that received 7G9-1A8 were chosen at random for post-study pathology assessment. Brain, colon, intestine, heart, kidney, liver, lung, mandibular salivary gland, pancreas, spleen, stomach, adrenal gland and thyroid gland organs were collected from each mouse. The organs were fixed in formalin (VWR; Radnor, Pa.) for about 48 hours, transferred to 70% ethanol (Sigma-Aldrich; St. Louis, Mo.), and then processed for standard H&E staining.
The H&E stained tissue slides were examined for pathology review. Liver sections from each animal had multifocal inflammation with or without concomitant hepatocellular necrosis. The histo-pathological changes were minimal to mild in severity. There was no appreciable difference in the morphology of lesions among vehicle control group mice and mice that received 7G9-1A8.

[4] = mouse, in vivo

B1: 7G9-1A8: 7G9-1A8 IgG2b κ antibody; heavy chain variable domain SEQ ID NO 12, light chain SEQ ID NO 9 (antibody, V domains shown)
VH: QVQLKESGPGLVAPSQNLSITCTVSGFSLTSYGVNWVRQPPGKGLEWLGVIWGDGSTNYHSALISRLIISKENSKSQVFLKLNSLQTNDTATYYCTKGFVYWGQGTLVTVSA
VL: QIVLTQSPAIMSASPGEKVTMTCSASSSVSYMHWYQQKSGTSPKRWIFDTSKLASGVPARFSGSGSGTSYSLTISSMEAEDAATYYCQQWSSNLLTFGAGTKLELK
Average Tumor Volume ([1]; day 1 of treatment): 112.4 mm^3 | Average Tumor Volume ([1]; day 4 of treatment): 148.7 mm^3 | Average Tumor Volume ([1]; day 6 of treatment): 161.9 mm^3 | Average Tumor Volume ([1]; day 8 of treatment): 152.8 mm^3 | Average Tumor Volume ([1]; day 11 of treatment): 136.3 mm^3 | Average Tumor Volume ([1]; day 13 of treatment): 118.4 mm^3 | Average Tumor Volume ([1]; day 15 of treatment): 105.1 mm^3 | Average Tumor Volume ([1]; day 18 of treatment): 99.5 mm^3 | Average Tumor Volume ([1]; day 20 of treatment): 91.7 mm^3 | Average Tumor Volume ([1]; day 22): 105.2 mm^3 | Average Tumor Volume ([1]; day 26): 102.8 mm^3 | Average Tumor Volume ([1]; day 27): 107.4 mm^3 | Average Tumor Volume ([1]; day 29): 147.1 mm^3 | Average Tumor Volume ([1]; day 32): 160.6 mm^3 | Average Tumor Volume ([1]; day 34): 164.7 mm^3 | Average Tumor Volume ([1]; day 36): 212.1 mm^3 | Average Tumor Volume ([1]; day 39): 206.6 mm^3 | Average Tumor Volume ([1]; day 41): 235.3 mm^3 | % Lymphocytes [2]: 44.4% | % Monocytes [2]: 4.6% | % Neutrophils (Segmented) [2]: 51.0% | Hematocrit [2]: 46.9% | Hemoglobin [2]: 16.0 g/dL | Lymphocytes [2]: 5.6 10^9/L | Mean Corpuscular Hemoglobin [2]: 16.2 pg | Mean Corpuscular Hemoglobin Concentration [2]: 34.2 g/dL | Mean Corpuscular Volume [2]: 47.4 fL | Mean platelet volume [2]: 7.4 fL | Monocytes [2]: 0.7 10^9/L | Neutrophils [2]: 7.6 10^9/L | Platelet Cell Distribution Width [2]: 32.2% | Platelet count [2]: 712.2 10^3 | Red Cell Distribution Width [2]: 19.0% | Red blood cells [2]: 9.9 | White blood cells ([2]; blood by terminal cardiac puncture): 13.9 | liver histo-pathology vs vehicle control group ([3]; 5 treated, 3 vehicle mice): no significant difference between the groups | neutrophil aggregation in the muscularis mucosa of the stomach ([3]; seen in two vehicle control mice): not observed | weight gain over the course of treatment as compared to vehicle control [4]: higher percent gain in weight
